Measured values: article PMC2063867

Target: FAK
Experiment: anti-GFP co-IP, anti-myc blot
Conditions: reference: WT-paxillin-GFP; sites S273

paxillin, sequence (P49024 whole entry, looked up, stated change not applied): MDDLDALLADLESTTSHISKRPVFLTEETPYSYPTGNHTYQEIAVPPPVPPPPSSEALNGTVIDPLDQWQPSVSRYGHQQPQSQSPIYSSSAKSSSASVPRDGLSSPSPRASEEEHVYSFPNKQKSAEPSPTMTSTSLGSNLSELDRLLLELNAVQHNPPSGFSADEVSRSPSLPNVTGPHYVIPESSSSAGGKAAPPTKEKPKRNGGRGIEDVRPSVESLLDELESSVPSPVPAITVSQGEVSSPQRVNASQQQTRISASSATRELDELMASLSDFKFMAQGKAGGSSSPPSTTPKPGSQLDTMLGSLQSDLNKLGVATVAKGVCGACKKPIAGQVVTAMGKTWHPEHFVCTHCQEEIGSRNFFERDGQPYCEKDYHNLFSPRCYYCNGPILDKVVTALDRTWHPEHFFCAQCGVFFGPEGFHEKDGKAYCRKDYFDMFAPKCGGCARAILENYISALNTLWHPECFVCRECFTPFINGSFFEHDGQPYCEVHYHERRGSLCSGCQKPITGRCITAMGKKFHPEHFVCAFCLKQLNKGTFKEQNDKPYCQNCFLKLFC

In the case of “paxillin (from UniProt P49024) S273A-paxillin-GFP”, the other: percent increase over reference is reported as 25%.
